# Where “and” joins values, the source holds several entries; their conditions need not be identical. Equal entries are not always repeated.
# T1: recombinant human CD39 protein (huCD39) (Homo sapiens, UniProt P49961)
# T1 sequence (P49961 38-478 limits assumed): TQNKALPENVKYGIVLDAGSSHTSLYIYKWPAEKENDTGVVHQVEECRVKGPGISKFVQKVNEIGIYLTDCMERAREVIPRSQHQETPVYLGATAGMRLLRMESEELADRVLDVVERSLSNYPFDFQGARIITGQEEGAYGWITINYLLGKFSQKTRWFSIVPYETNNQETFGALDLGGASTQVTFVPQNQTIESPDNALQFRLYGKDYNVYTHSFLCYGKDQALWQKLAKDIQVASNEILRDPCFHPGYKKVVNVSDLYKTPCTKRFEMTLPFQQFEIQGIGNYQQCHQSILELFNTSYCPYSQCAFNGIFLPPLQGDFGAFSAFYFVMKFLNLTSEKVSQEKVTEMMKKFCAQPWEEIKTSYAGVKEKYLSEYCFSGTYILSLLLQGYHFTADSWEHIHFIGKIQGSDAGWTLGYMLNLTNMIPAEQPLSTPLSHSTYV
# T2: free membrane CD39 (mCD39) on monocytes (Homo sapiens, UniProt P49961)
# T2 construct: endogenous in cells; host or cells: monocytes and B cells in patients' blood
# T2 sequence (P49961 1-510): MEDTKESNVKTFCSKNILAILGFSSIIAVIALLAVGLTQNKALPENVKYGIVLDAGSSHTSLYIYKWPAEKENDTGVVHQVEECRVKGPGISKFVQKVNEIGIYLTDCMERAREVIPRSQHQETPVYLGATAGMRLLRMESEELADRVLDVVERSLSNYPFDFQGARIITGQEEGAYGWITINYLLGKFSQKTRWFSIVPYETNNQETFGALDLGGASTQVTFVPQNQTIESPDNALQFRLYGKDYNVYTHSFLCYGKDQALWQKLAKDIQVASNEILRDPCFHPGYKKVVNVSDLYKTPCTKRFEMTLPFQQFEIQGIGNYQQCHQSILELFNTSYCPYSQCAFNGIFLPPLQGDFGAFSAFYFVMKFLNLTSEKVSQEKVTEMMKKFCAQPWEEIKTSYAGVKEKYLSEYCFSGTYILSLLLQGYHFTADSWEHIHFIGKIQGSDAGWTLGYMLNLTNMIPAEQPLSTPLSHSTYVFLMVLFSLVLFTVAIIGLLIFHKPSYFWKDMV
# Key:
# [1] = biological target: T1, recombinant human CD39 protein (huCD39); assay: eATP release by H1703 (CD39-) cells incubated with recombinant huCD39, with or without IPH5201, then docetaxel; assay type: cell-based; details: H1703 cells + huCD39 400 ng/ml + docetaxel 0.1 μM; IPH5201 10 μg/mL; 40 h; FIG. 3A
# Protocol: H1703 (CD39−) cells were incubated with recombinant human CD39 protein (huCD39) (400 ng/ml) to mimic soluble CD39 in tumor microenvironment with or without IPH5201 (humanized anti-CD39 antibody having the respective heavy and light chain amino acid sequences of SEQ ID NOS: 10 and 11) at 10 μg/mL and then treated with docetaxel (0.1 μM). The measure of extracellular ATP (eATP) release was performed 40 h after docetaxel treatment.
# OAW42 (CD39+) cells were incubated with 10 or 50 μg/mL of IPH5201 and treated with a dose range of docetaxel. The measure of eATP release was performed 30 h after docetaxel treatment. eATP was measured in the cell culture supernatant with a luminescent-based assay (CellTiter-Glo®) and expressed in Luminescence Arbitrary Unit (AU). Means+/−SD.
# [2] = biological target: T2, free membrane CD39 (mCD39) on monocytes; assay: Indirect response PD model: IPH5201 concentration vs free mCD39 on monocytes, phase 1 patients; assay type: in vivo
# Description: PK/PD modelling and simulation were used to guide selection of doses. IPH5201 PK data from 45 patients and PD data of free membrane CD39 (mCD39) occupancy on monocytes from 43 patients were available.
# An indirect response PD model (inhibition on Kin) was then built to describe the relationship between IPH5201 concentrations and free mCD39 on monocytes (FIG. 10). The model accurately predicted CD39free+ of monocytes (%). […] The final indirect response model was then used for parametric simulation.
# [3] = Phase 1 study of IPH5201 +/- durvalumab in advanced solid tumours: safety; assay type: in vivo
# Protocol: A first-in-human, multicentre, non-randomised, open-label, phase 1 study was conducted in order to assess the safety, efficacy, pharmacokinetics (PK) and pharmacodynamics (PD) of IPH5201±durvalumab (Imfinzi™) in patients with advanced solid tumours. The study consisted of two consecutive dose-escalation parts: • Part 1: Ascending doses of IPH5201 (100, 300, 1000 and 3000 mg) every 3 weeks (Q3W). • Part 2: Ascending doses of IPH5201 (300, 1000 and 3000 mg) and 1500 mg durvalumab Q3W.
# PD cohorts enrolled patients with advanced squamous cell lung carcinoma or advanced pancreatic ductal adenocarcinoma in the top two dose levels of Parts 1 and 2. Primary endpoints were safety and tolerability. Key secondary endpoints included preliminary antitumour activity measured by objective response and disease control per RECIST v1.1, PK and immunogenicity. Exploratory endpoints included efficacy measured by duration of response and progression-free survival (PFS) per RECIST v1.1, overall survival and assessment of biomarkers.
# Key inclusion criteria were: • Adults aged ≥18 years. • Histologically or cytologically confirmed advanced solid tumours. • At least one measurable lesion per RECIST v1.1. • Refractoriness to standard therapy or disease for which no standard therapy exists. • Eastern Cooperative Oncology Group Performance Status of 0 or 1. • Archival or fresh tumour sample. • Key exclusion criteria were: • Previous treatment with any agents targeting CD73, CD39, or adenosine receptors. • Treatment with any conventional or investigational anticancer therapy within 21 days of the first planned dose. • Active or prior autoimmune or inflammatory disorders within the past 5 years. • Cardiac and vascular criteria including presence of acute coronary syndrome or thromboembolic events within 6 months prior to enrolment, congestive heart failure, serious cardiac arrhythmia requiring medication, or uncontrolled hypertension. • Untreated metastases to the central nervous system.
# Overall, 57 patients received treatment (IPH5201, n=38; IPH5201+durvalumab, n=19). […] Treatment-emergent adverse events (TEAEs) occurred in 96.5% of patients; 40.4% had grade ≥3 TEAEs. […] Treatment-related adverse events (TRAEs) occurred in 66.7% of patients (37/57 (64.9%) related to IPH5201; 11/19 (57.9%) related to durvalumab). […] The most common TRAEs were infusion-related reactions (21.1%), fatigue (17.5%), nausea, arthralgia, tumour pain and pruritus (8.8% each). […] Maximum tolerated dose (MTD) was not reached.
molecule,measurement,setting,value
IPH5201: humanized anti-CD39 antibody having the respective heavy and light chain amino acid sequences of SEQ ID NOS: 10 and 11 (antibody) heavy: QVQLVQSGAEVKKPGASVKVSCKASGYTFTDYNMHWVRQAPGQRLEWIGYIVPLNGGSTFNQKFKGRATITVDTSARTAYMELSSLRSEDTAVYYCARGGTRFAYWGQGTLVTVSSASTKGPSVFPLAPSSKSTSGGTAALGCLVKDYFPEPVTVSWNSGALTSGVHTFPAVLQSSGLYSLSSVVTVPSSSLGTQTYICNVNHKPSNTKVDKRVEPKSCDKTHTCPPCPAPEAEGAPSVFLFPPKPKDTLMISRTPEVTCVVVDVSHEDPEVKFNWYVDGVEVHNAKTKPREEQYNSTYRVVSVLTVLHQDWLNGKEYKCKVSNKALPSSIEKTISKAKGQPREPQVYTLPPSREEMTKNQVSLTCLVKGFYPSDIAVEWESNGQPENNYKTTPPVLDSDGSFFLYSKLTVDKSRWQQGNVFSCSVMHEALHNHYTQKSLSLSPGK light: DIVMTQSPDSLAVSLGERATINCRASESVDNFGVSFMYWFQQKPGQPPKLLIYGASNQGSGVPDRFSGSGSGTDFTLTISSLQAEDVAVYYCQQTKEVPYTFGGGTKVEIKRTVAAPSVFIFPPSDEQLKSGTASVVCLLNNFYPREAKVQWKVDNALQSGNSQESVTEQDSKDSTYSLSSTLTLSKADYEKHKVYACEVTHQGLSSPVTKSFNRGEC,eATP release reduced by added huCD39,[1],restored
same,Production rate constant,"[2]; indirect response PD model (inhibition on Kin), model parameter",20.5 h⁻¹
same,Maximum inhibition (IMAX) of CD39free+,"[2]; indirect response PD model, monocytes",0.926 and 0.92
same,deaths due to treatment,[3]; all 57 treated patients,no deaths due to treatment
same,Maximum tolerated dose (MTD),[3]; doses up to 3000 mg Q3W,not reached
same,DLTs during dose escalation,[3]; in vivo,No DLTs were observed
same,TEAE: anaemia,[3]; in vivo,19.3%
same,TEAE: decreased appetite,[3]; in vivo,26.3%
same,TEAE: fatigue,[3]; in vivo,28.1%
same,TEAE: infusion-related reactions,[3]; in vivo,21.1%
same,TEAE: tumour pain,[3]; in vivo,19.3%
same,TRAE: arthralgia,[3]; in vivo,8.8%
same,TRAE: fatigue,[3]; in vivo,17.5%
same,TRAE: infusion-related reactions,[3]; in vivo,21.1%
same,TRAE: nausea,[3]; in vivo,8.8%
same,TRAE: pruritus,[3]; in vivo,8.8%
same,TRAE: tumour pain,[3]; in vivo,8.8%
same,correlation of dose with incidence of TEAEs of at least grade 3,[3]; in vivo,No significant correlation
same,grade 4 TRAEs,[3]; in vivo,no grade 4 TRAEs
same,patients with TRAEs related to IPH5201,[3]; in vivo,64.9%
same,"patients with TRAEs related to IPH5201, count",[3]; in vivo,37/57
same,patients with grade 3 TRAEs,[3]; in vivo,10.5%
same,patients with grade ≥3 TEAEs,[3]; in vivo,40.4%
same,patients with treatment-emergent adverse events (TEAEs),[3]; in vivo,96.5%
same,patients with treatment-related adverse events (TRAEs),[3]; in vivo,66.7%

# — patent US20260191954A1, “COMPOSITIONS AND METHODS FOR NEOADJUVANT TREATMENT IN CANCER” (INNATE PHARMA, priority 2022, published 2026)
